Experimental data reported in patent US20220281965A1 (AstraZeneca / MedImmune, published 2022).

T1: mouse GDF-15 (mouse, UniProt Q9Z0J7 189-303)
T1 construct: also called mGDF-15
T1 sequence: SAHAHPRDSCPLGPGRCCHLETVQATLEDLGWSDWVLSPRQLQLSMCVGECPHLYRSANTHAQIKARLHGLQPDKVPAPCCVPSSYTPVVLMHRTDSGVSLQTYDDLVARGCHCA

T2: biotinylated human H202D GDF-15 variant (human, UniProt Q99988 197-308, biotinylated, sites not stated)
T2 construct: also called Human GDF-15 H202D
T2 chain: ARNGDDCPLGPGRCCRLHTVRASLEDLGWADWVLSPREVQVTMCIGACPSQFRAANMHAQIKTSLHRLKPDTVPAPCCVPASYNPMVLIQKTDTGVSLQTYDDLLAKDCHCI

T3: biotinylated cynomolgus GDF-15 (cynomolgus, UniProt G7PWZ3 197-308, biotinylated, sites not stated)
T3 construct: also called Cyno GDF-15
T3 sequence: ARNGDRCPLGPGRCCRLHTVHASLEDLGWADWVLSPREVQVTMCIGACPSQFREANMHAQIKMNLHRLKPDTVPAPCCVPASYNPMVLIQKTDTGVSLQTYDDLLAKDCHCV

T4: mature human GDF-15 (human, UniProt Q99988 197-308)
T4 construct: Homodimer; also called hGDF-15; recombinant hu-GDF15
T4 sequence: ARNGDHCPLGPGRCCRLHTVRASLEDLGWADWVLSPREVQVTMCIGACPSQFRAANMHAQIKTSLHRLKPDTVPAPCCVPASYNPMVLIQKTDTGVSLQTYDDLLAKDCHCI

B1: AB1170010 (antibody, V domains shown)
VH: QVTLKESGPGILQPSQTLSLTCSFSGFSLSTYGMGVGWIRQPSGKGLEWLANIWWNDDKYYNSALKSRLTISKDTSNNQVFLKISSVDTADTATYYCAQEVYGWFAYWGQGTLVTVSS
VL: DIVMTQSQKFMSTSVGDRVSVTCKASQNVGTNVAWYQQKPGQSPKALIYSASYRYSGVPDRFTGSGSGTDFTLTISNVQSEDLAEYFCQQYNSYPLTFGGGTKLEIK
B2: AB1170072 (antibody, V domains shown)
VH: QVTLKESGPGILQPSQTLSLTCSFSGFSLSTYGMGVGWIRQPSGKGLEWLANIWWNDDKYYNSALKSRLTISKDTSNNQVFLKISSVDTADTATYYCAQMAYSWFAYWGQGTLVTVSS
VL: DIVMTQSQKFMSTSVGDRVSVTCKASQNMDTNVAWYQQKPGQSPKALIYSASYRYSGVPDRFTGSGSGTDFTLTISNVQSEDLAEYFCQQYNSYPFTFGSGTKLEIK
B3: AB1170028 (antibody, V domains shown)
VH: DVKLVESGEGLVKPGGSLKLSCAASGFTFSSFAMSWVRQTPEKRLEWVAYITSGGDYIFYADTVKGRFTISRDNARNTLYLQMSSLKSEDTAMYYCTRDDGYLWFAYWGQGTLVTVSA
VL: SIVMTQTPKFLPVSAGDRVTMTCKASQNVGNNVAWYQQKPGQSPKLLIYYASNRYTGVPDRFTGSGSGTDFTFTISSVQVEDLAVYFCQQHYSSPLTFGAGTKLELK
B4: AB1170036 (antibody, V domains shown)
VH: DVKLVESGEGLVKPGGSLKLSCAASGFTFSSYAMSWVRQTPEKRLEWVAYISSGGDNIYYADTVKGRFTISRDNARNTLYLQMSSLKSEDTAMYYCTRALVENAYFDYWGQGTTLTVSS
VL: DSVLTQSPASLLVSLGQRATISCRASKSVSTSTYSYMHWYQQKPGQPPKLLIKYASYLESGVPARFSGSGSGTDFTLNIHPVEEEDAATYYCQHSREFPWTFGGGTKLEIK
B5: AB1170040 (antibody, V domains shown)
VH: DVKLVESGEGLVKPGGSLKLSCAASGFTFSSYAMSWVRQTPEKRLEWVAYISSGGDYIYYADTVKGRFTISRDNARNTLYLQMSSLKSEDTAMYYCTRALVDNAYFDYWGQGTTLTVSS
VL: DIVLTQSPASLAVSLGQRATISCRASKSVSTSSYSYMHWYQQKPGQPPKLLIKYASYLEFGVPARFSGSGSGTDFTLNIHPVEEEDAATYYCQHSREFPWTFGGGTKLEIK
B6: AB1170043 (antibody, V domains shown)
VH: QVTLKESGPGILQSSQTLSLTCSFSGFSLITSGLGVSWIRQPSGKGLEWLAHIYWDDDKRYNPSLKSRLTISKDTSRNQVFLKITSVDTADTATYYCARGGYDGYYDYWGQGTTLTVSS
VL: DVVMTQTPLSLPVSLGDQASISCRSSQSIVHSNGNTNLEWYLQKPGQSPKLLIYKVSNRLSGVPDRFSGSGSGTDFTLKISRVEAEDLGVYYCFQGSHVRTFGGGTKLEIK
B7: AB1170086 (antibody, V domains shown)
VH: QVTLKESGPGILQSSQTLSLTCSFSGFSLSTSGMGVSWIRQPSGKGLEWLAHIYWDDDKRYNPSLESRLTISKDTSRNQVFLKITSVDTTDTATYYCARGGYDGYYDYWGQGTTLTVSS
VL: DVVMTQTPLSLPVSLGDQASISCRSSQSIVHSNGNTNLEWYLQKPGQSPKLLIYKVSNRLSGVPDRFSGSGSGTDSTLKISRVEAEDLGVYYCFQGSHVRTFGGGTKLEIK
B8: AB1170047 (antibody, V domains shown)
VH: QVQLQQSGPELVKPGASVKLSCKASGYTFTSYDINWVKQRPGQGLEWIGWIYPRDGISKYNEKFKGKATLTVDTSSSTAYMELHSLTSEDSAVYFCAGTYDPAYFDYWGQGTTLTVSS
VL: DIVLTQSPATLSVTPGDRVSLSCRASQSISYYLHWYQQKSHESPRLLIKYASQSISGIPSRFSGSGSGTDFTLSINSVETEDFGMYFCQQSNSWPYTFGGGTKLEIK
B9: AB1170069 (antibody, V domains shown)
VH: QVQLQQSGPELVKPGASVKLSCKASGYTFTSYDINWVKQRPGQGLEWIGWIYPRDGISKYNEKFEGKATLTVDTSSSTAYMELHSLTSEDSAVYFCAGTSDPAYFDYWGQGTTLTVSS
VL: DIVLTQSPATLSVTPGDRVSLSCRASQSISYYLHWYQQKSHESPRLLIKYASQSISGIPSRFSGSGSGTDFTLSINSVETEDFGMYFCQQSNSWPYTFGGGTKLEIK
B10: AB1170070 (antibody, V domains shown)
VH: EVQLQQSGPELVKPGASVKIPCKASGYTFTDYNMDWVKQSHGKSLEWIGDINPYNGITIYNQKFKGKATLTVDKSSSTAYMELRSLTSEDTAVYYCAREEKLGTSFDYWGQGTTLTVSS
VL: DIQMTQSPASLSASVGETVTITCRASENIYSNLAWYQQKQGKSPQLLVYAATNLADGVPSRFSGSGSGTQFSLKINSLQPEDFGSYYCQHFYGTPWTFGGGTKLEIK
B11: AB1170073 (antibody, V domains shown)
VH: QVTLKESGPGILQPSQTLSLTCSFSGFSLSTFGMGVGWIRQPSGKGLEWLAHIWWDDDKYYNPALKSRLTISKDTSKNQVFLKIANVDTADTATYYCARIAYDGYLDYWGQGTTLTVSS
VL: DIVMTQSQKFMSTSVGDRVSVTCKASQNVGTDVAWYQQKPGQSPKSLIYSASYRYSGVPDRFTGSGSGTDFTLTISNVQSEDLAEYFCQQYNSYPYTFGGGTKLEIK
B12: AB1170006 (antibody, V domains shown)
VH: EVQLQQSGPELVKPGASVKIPCKASGYTFTDYNMDWVKQSHGKSLEWIGDINPNNGVTIYNQKFKGKATLTVDKSSSTAYMELRSLTSEDTAVFYCAREELTGNAMDYWGQGTSVTVSS
VL: DIQMTQSPASLSVSVGETVTITCRASENIYSHLAWYQQKQGKSPQLLVYAATNLADGVPSRFSGSGSGTQYSLKINSLQSEDFGSYYCQHFWGTPWTFGGGTKLEIK
B13: AB1170148 (antibody, V domains shown)
VH: QVQLQQPGAELVRPGTSVKLSCKASGYTFTSYWMHWVKQRPRQGLEWIGLIDPSDNYTNYNQNFKGKATLTVDTSSSTAYMQLGSLTSEDSAVYYCASYDGYSTPSAMDYWGQGTSVTVSS
VL: QIVLSQSPAILSASPGEKVTMTCRASSSVNYMHWYQQKPGSSPKPWIYATSNLASGVPARFSGSGSGTSYSLIISRVEAEDAAAYYCQQWSSYPPTFGGGTKLEIK

Legend:
mouse GDF-15 = biological target: T1, mouse GDF-15; test: HTRF binding assay, biotinylated antigen, titration of antibody
Source text: (§1) Supernatants generated from the immunizations with human GDF-15 and purified IgGs were screened to identify IgGs with specific binding to human, cynomolgus, or mouse GDF-15. The HTRF (Homogeneous Time Resolved Fluorescence) assay is based on detection of a measurable FRET signal upon binding of a titration of test antibody to biotinylated human H202D GDF-15 variant, cynomolgus GDF-15 and mouse GDF-15. Europium cryptate (EuK) labelled Streptavidin and anti-human IgG XL665 (Cis Bio) were used as secondary detection reagents serving as energy donor and acceptor respectively. In the absence of test antibody binding, there is no detectable FRET fluorescence. When test antibody binds to GDF-15, the resulting physical proximity between the secondary reagent donor/acceptor pair results in FRET. FRET was measured ratiometrically [665 nm (acceptor)/620 nm (donor)] on an Envision plate reader, and data plotted using PRISM 6® software (Graphpad).

[1] = biological target: T2, biotinylated human H202D GDF-15 variant; test: as above
Source text: as §1

[2] = biological target: T3, biotinylated cynomolgus GDF-15; test: as above
Source text: as §1

mature human GDF-15 = biological target: T4, mature human GDF-15; test: HTRF epitope competition; competitor DyLight 650 labelled Antibody A; Europium labelled human GDF-15
Source text: Antibodies from the immunizations with human GDF-15, in the form of crude supernatants from the immunization or in the form of purified IgGs, were chosen on the basis that they bind and compete with an epitope recognized by a control anti-GDF-15 antibody “Antibody A”. A biochemical epitope competition format was applied using an HTRF epitope competition assay that measured the binding of DyLight 650 labelled Antibody A to Europium labelled human GDF-15 (Prospec). In the absence of Antibody A binding, there is no detectable FRET fluorescence. When Antibody A binds to GDF-15, the resulting physical proximity between the secondary reagent donor/acceptor pair results in FRET. Competition with an antibody that recognizes the same or similar epitope will result in a dose dependent reduction of the FRET signal. FRET was measured ratiometrically [665 nm (acceptor)/620 nm (donor)] on an Envision plate reader, and IC₅₀ values were determined by curve fitting the data to a four parameter logistic equation using PRISM 6® software (Graphpad).

Binder | binding result (mouse GDF-15) | binding result [1] | binding result [2] | IC50 (mature human GDF-15) [nM]
B1 | binds | binds | binds | 0.758
B2 | binds | binds | binds | 0.693
B3 | binds | binds | binds | 0.485
B4 | binds | binds | binds | 0.622
B5 | binds | binds | binds | 1.42
B6 | binds | binds | binds | 1.95
B7 | binds | binds | binds | 1.11
B8 | binds | binds | binds | 1.36
B9 | binds | binds | binds | 0.759
B10 | binds | binds | binds | 6.83
B11 | binds | binds | binds | 2.11
B12 | binds | binds | binds | 97.1
B13 | binds | binds | binds | 68.3
